In patent publication US6638907 (BIOSTRATUM, dated 2003):
Values belong to the molecule of their own block, whether it stands above or below them.

Tests used:
[1] = target: integrin α2 on HT-1080 cells (human) (UniProt P17301); assay: cell-based or functional assay
[2] = target: integrin α6β1 on bovine adrenal microvascular endothelial (BCE) cells (bovine) (UniProt P53712); assay: cell-based or functional assay
[3] = target: α6-subunit containing integrins on mouse IBE (Immortomouse brain capillary endothelial) cells; assay: cell-based or functional assay
[4] = target: T1, disulfide-linked β1/γ1 dimer of r-laminin 8 (mouse β1, human γ1) (mouse; human, UniProt P02469 22-1786; P11047 34-1609); assay: non-reducing SDS-PAGE of anti-FLAG purified r-laminin 8
T1 construct: mature; also called covalently associated dimers; the dimers
Description: The r-laminin 8 bound to anti-FLAG M2 matrix with high specificity. […] (FIG. 1) Under non-reducing conditions, the purified protein hardly entered the gel, which was to be expected as the predicted molecular weight for the mature trimer is at least 570 kD. A minor fraction of the purified trimer appeared as non-covalently associated (see discussion). In this fraction, the β1 and γ1 chains appeared as covalently associated dimers, whereas the α4 chain was non-covalently associated. Under reducing conditions, the protein appeared as a broad band at around 200 kD, which reacted on Western blots with α4, EHS, γ1, and anti-FLAG antibodies. The predicted molecular weights for mature α4, β1, and γ1 polypeptides are 200, 195, and 174 kD respectively. Laminins are heavily glycosylated, which may account for the slight discrepancy in molecular weight observed in SDS-PAGE.

Chain of integrin α6β1 on bovine adrenal microvascular endothelial (BCE) cells (bovine) (P53712 21-798): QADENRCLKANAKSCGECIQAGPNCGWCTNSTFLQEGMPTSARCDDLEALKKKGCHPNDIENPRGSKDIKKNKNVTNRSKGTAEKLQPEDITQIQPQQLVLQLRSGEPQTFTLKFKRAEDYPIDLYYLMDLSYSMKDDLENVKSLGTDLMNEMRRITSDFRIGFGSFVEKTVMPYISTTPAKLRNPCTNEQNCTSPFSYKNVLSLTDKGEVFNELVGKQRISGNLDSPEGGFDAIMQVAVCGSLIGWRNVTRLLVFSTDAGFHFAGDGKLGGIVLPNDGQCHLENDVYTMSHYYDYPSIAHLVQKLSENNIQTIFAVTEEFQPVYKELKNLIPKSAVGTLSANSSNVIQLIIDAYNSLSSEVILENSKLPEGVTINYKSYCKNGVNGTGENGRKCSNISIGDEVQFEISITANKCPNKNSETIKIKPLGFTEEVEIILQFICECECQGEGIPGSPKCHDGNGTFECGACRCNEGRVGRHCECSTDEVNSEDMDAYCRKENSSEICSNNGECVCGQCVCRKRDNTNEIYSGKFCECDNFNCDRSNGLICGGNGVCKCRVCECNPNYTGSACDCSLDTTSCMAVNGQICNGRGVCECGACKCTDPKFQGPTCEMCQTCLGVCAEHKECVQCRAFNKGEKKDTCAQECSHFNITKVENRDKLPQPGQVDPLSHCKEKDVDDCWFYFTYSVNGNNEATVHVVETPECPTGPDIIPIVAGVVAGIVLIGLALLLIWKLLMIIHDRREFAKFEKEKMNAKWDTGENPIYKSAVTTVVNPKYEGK
Chain of integrin α2 on HT-1080 cells (human) (P17301 30-1181): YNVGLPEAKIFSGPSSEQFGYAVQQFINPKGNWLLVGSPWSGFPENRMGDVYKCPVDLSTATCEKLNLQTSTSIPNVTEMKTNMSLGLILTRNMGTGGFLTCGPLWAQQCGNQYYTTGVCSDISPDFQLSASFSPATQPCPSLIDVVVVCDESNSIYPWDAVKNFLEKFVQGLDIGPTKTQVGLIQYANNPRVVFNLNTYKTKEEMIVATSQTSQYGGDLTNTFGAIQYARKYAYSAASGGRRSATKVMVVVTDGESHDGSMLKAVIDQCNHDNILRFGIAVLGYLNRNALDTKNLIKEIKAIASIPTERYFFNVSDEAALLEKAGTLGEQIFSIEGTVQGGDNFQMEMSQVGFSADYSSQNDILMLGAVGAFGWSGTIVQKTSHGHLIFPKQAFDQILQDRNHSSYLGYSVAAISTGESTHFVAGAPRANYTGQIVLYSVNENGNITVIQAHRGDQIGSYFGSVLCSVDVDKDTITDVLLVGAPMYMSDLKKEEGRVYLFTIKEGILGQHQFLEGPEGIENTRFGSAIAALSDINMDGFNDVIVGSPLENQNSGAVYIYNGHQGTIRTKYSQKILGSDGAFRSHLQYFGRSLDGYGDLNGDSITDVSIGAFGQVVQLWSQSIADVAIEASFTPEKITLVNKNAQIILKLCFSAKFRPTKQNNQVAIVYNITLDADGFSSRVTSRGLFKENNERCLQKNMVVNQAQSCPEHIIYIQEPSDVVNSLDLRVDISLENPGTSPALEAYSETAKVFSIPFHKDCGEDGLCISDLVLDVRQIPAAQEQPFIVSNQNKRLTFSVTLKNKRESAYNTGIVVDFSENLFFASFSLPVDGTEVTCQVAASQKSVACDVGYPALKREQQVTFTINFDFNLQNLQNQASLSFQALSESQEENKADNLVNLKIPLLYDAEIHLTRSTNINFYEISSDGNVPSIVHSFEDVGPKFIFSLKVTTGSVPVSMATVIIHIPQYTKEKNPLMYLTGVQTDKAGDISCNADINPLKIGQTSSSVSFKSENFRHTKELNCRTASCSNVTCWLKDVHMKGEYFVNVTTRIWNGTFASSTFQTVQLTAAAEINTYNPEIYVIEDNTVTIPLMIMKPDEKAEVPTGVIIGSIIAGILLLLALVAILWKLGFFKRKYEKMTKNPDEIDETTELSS

HT-1080 cell adhesion to Type IV collagen with anti-integrin α2 mAb, percent of control [1]: 50%
Molecule: collagen type IV from EHS-tumor (from UniProt P02463 28-1669; P08122 26-1707)

BCE cell adhesion to coated r-laminin 8 with anti-β1 mAb AIIB2, percent blocked [2]: 70% | IBE cell adhesion to coated r-laminin 8 with anti-α6 mAb, percent blocked [3]: 60%
Molecule: recombinant laminin 8 (human α4 chain with C-terminal FLAG epitope, mouse β1 chain, human γ1 chain) (from UniProt Q16363 25-1823; P02469 22-1786; P11047 34-1609)

binding result [4]: binds
B1: human laminin α4 chain containing a C-terminal FLAG epitope (other)
chain: ASGDDNAFPFDIEGSSAVGRQDPPETSEPRVALGRLPPAAEKCNAGFFHTLSGECVPCDCNGNSNECLDGSGYCVHCQRNTTGEHCEKCLDGYIGDSIRGAPQFCQPCPCPLPHLANFPESCYRKNGAVRCICNENYAGPNCERCAPGYYGNPFLIGSTCKKCDCSGNSDPNLIFEDCDEVTGQCRNCLRNTTGFKCERCAPGYYGDARIAKNCAVCNCGGGPCDSVTGECLEEGFEPPTGCDKCVWDLTDDLRLAALSIEEGKSGVLSVSSGAAAHRHVNEINATIYLLKTKLSERENQYALRKIQINNAENTMKSLLSDVEELVEKENQASRKGQLVQKESMDTINHASQLVEQAHDMRDKIQEINNKMLYYGEEHELSPKEISEKLVLAQKMLEEIRSRQPFFTQRELVDEEADEAYELLSQAESWQRLHNETRTLFPVVLEQLDDYNAKLSDLQEALDQALNYVRDAEDMNRATAARQRDHEKQQERVREQMEVVNMSLSTSADSLTTPRLTLSELDDIIKNASGIYAEIDGAKSELQVKLSNLSNLSHDLVQEAIDHAQDLQQEANELSRKLHSSDMNGLVQKALDASNVYENIVNYVSEANETAEFALNTTDRIYDAVSGIDTQIIYHKDESENLLNQARELQAKAESSSDEAVADTSRRVGGALARKSALKTRLSDAVKQLQAAERGDAQQRLGQSRLITEEANRTTMEVQQATAPMANNLTNWSQNLQHFDSSAYNTAVNSARDAVRNLTEVVPQLLDQLRTVEQKRPASNVSASIQRIRELIAQTRSVASKIQVSMMFDGQSAVEVHSRTSMDDLKAFTSLSLYMKPPVKRPELTETADQFILYLGSKNAKKEYMGLAIKNDNLVYVYNLGTKDVEIPLDSKPVSSWPAYFSIVKIERVGKHGKVFLTVPSLSSTAEEKFIKKGEFSGDDSLLDLDPEDTVFYVGGVPSNFKLPTSLNLPGFVGCLELATLNNDVISLYNFKHIYNMDPSTSVPCARDKLAFTQSRAASYFFDGSGYAVVRDIPRRGKFGQVTRFDIEVRTPADNGLILLMVNGSMFFRLEMRNGYLHVFYDFGFSSGRVHLEDTLKKAQINDAKYHEISIIYHNDKKMILVVDRRHVKSMDNEKMKIPFTDIYIGGAPPEILQSRALRAHLPLDINFRGCMKGFQFQKKDFNLLEQTETLGVGYGCPEDSLISRRAYFNGQSFIASIQKISFFDGFEGGFNFRTLQPNGLLFYYASGSDVFSISLDNGTVIMDVKGIKVQSVDKQYNDGLSHFVISSVSPTRYELIVDKSRVGSKNPTKGKIEQTQASEKKFYFGGSPISAQYANFTGCISNAYFTRVDRDVEVEDFQRYTEKVHTSLYECPIESSPLFLLHKKGKNLSKPKASQNKKGGKSKDAPSWDPVALKLPERNTPRNSHCHLSNSPRAIEHAYQYGGTANSRQEFEHLKGDFGAKSQFSIRLRTRSSHGMIFYVSDQEENDFMTLFLAHGRLVYMFNVGHKKLKIRSQEKYNDGLWHDVIFIRERSSGRLVIDGLRVLEESLPPTEATWKIKGPIYLGGVAPGKAVKNVQINSIYSFSGCLSNLQLNGASITSASQTFSVTPCFEGPMETGTYFSTEGGYVVLDESFNIGLKFEIAFEVRPRSSSGTLVHGHSVNGEYLNVHMKNGQVIVKVNNGIRDFSTSVTPKQSLCDGRWHRITVIRDSNVVQLDVDSEVNHVVGPLNPKPIDHREPVFVGGVPESLLTPRLAPSKPFTGCIRHFVIDGHPVSFSKAALVSGAVSINSCPAADYKDDDDK
notes: The α4 chain alone, as the non-crosslinked partner in the minor fraction of r-laminin 8; also called FLAG-tagged α4 chain
